This series in a line: label from the status in PepcDB records.
Regarding “MNKVQSIDPLIADKFNNELRSYNLEYKLEQESLNKEIDEALKNYASKNGGLGGNRPDVKLLLNTQDPNRRVPILIEYKGLKDKLIKLDKNKLVENFKNHEPHYKNIREYALNGALHYANAILHHTSYTECIAIGITGYKDNKGGICSQIAVYYVNKSNLGMGIDVSKGEQGYSDLSFLSRKHFNDFIKRVDTLSLSDEDLERIREKKNQEIEDCLMRLNNNIYNKEKNFLSEHNRVYLVIASIIANLGIPNLVTPLNKEDLKSSDEVHQRDGDIMLRKIQSFLENKDLSPEKRQSIISSLETLLRNENNNKATNGESCLKRCFSEIVDSLGIYYKIGLSTDFTGKLFNEMYRWLGFTKDQLNDVVLTPPYVATLLARLSKVNKDSFVWDFATGSAGLLVASMNLMIEDAKKRITSPEELEQKIAHIKAKQLLGIEILSDIHTLAVLNMILMGDGSSQILNQDGLSGFDGKVNNEAFKANAFVLNPPYSASGNGMVFVEQALEKMQSGYASVIIQSSAGSGKAKEYNVRILEKHTLLASIKMPLDLFIGKSSVQTHIYVFRVNEKHDAKQRVKFINFSNDGYARANRKKAKASHNLKDTHNAKERYNEVVDLVHIGQSCLKFLSEDDYYENTIDPKNGSDWNQNKPTDTKPELEDFKRTIADYLSYEVSLILKNQMPPKR”, the protein production result was “failed”.

Turning to “MPEITESERAYHLRKMKTRMQRVDVTGDGFISREDYELIAVRIAKIAKLSAEKAEETRQEFLRVADQLGLAPGVRISVEEAAVNATDSLLKMKGEEKAMAVIQSLIMYDCIDTDKDGYVSLPEFKAFLQAVGPDLTDDKAITCFNTLDFNKNGQISRDEFLVTVNDFLFGLEETALANAFYGDLVD”, the protein production entry is recorded as “not failed”.

With “MSLSLIKVGLVGIGAQMQENLLPSLLQMQDIRIVAACDSDLERARRVHRFISDIPVLDNVPAMLNQVPLDAVVMAGPPQLHFEMGLLAMSKGVNVFVEKPPCATLEELETLIDAARRSDVVSGVGMNFKFARPVRQLREMTQVDEFGETLHIQLNHYANKPRAPLWGLDSTLRSFLLAQAIHTIDLAITFGDGELRRVQSSVQRHDDALIVRADMAFSSGATASLLAGTSFPYFEFDMKLVSSSSTLVELDNLWNITLHEPEHATRPTGAAKRWRGAWQPGPLDSGYERSGYHGELHQFFQAIREHRRFEADFASLLPTYRVIEEICSADAVAQGLQNAHSRIRTGIESLSEGHHHHHH”, the protein production entry was “not failed”.

Regarding “MEKLGAVLFDDPNLSMNRTMACSTCHMQAAGFSDARESEKVGRDVSLGDDGISLGDRNAPTAAYAKFTPPFGKNAAGEYIGGQFWDGRASLLEDQAGGPPLNPVEMGMPDKAAVVKRLRENPDYVAAFGTQFGKDVFASDESAYAAMTKALASFERSDEFSTFDSKYDRFLRGEEKLTDQEELGRVLISSTQFTNCNTCHEIRGAKGLEDGLFTNHKYFNIGVPANTSVRAVNGSKPDAVDLGLAQNPAVAGDPAQRGKFKVPTLRNVAVTGPYMHNGVFKDLRTVVLFYVKYKSKKPSRQINPETGKTWDAPEVPENIAMTELTSAPALDDKRVDAIVAFLKTLTDRRYEHLLPKEDGQTAAPTAQPVLSVTPKAP”, the protein production result was “failed”.

Regarding “MMTKFWNDRYKSDEYFYGEEPNTFIKEQAFRLANHNKVIAFAEGEGRNAVFLARQGNEVTAIDYSEDGLEKTKKLAEKHNVNVHTKKVDLLADSLPENEYDAAIMVFGHFHDDYKKMILGKMIQTIKPGGLIMFEVYSKKQINYGTGGPKDVDMLYDPIDILTWCEEHKVIHFFNGEQERIEGKGHTGLADVIQVVIRK”, the protein production entry was “failed”.

With “MTKSTPHPSSIIKAEQQSLLYLHIAVFLFGGTALFSKLIGLPALDITVYRTGIAALALFILLTLQKKQISLSSMKDYGIAILLGCVVGLHWVTYFTGMQMAGVTVGMIAFFTYPVITVFIEPFFNRTVPKMKDMITAFVVIIGIVLLIPEISFGNQITLGIVTGIISAVFFALRNILHKNYFSHYSGPHTMLYQTLVACLMLCLFVEVPPMQVTESDWLLLLLVGVVFTATPHALFASSLRSLSATTAGLISCLQPLYGSILAIILLHERPDILTIIGGLLVVSAAIFETWSVSRGRR”, the protein production entry was “failed”.

Take “MELSSSESLGFSKILKERVKVKPMNKYAILAVLLWSTVASAFKLTLSRLDTISMLFYSSLTSTVIFLLANLKDIKTFSIKANLNSVFFGFINPFLYYLVLFSAYSILPAQEAQALNYTWPIILVIFSSAFLGQRLSERDFLGVIIGFLGALVVGTRGNLSSLHFANPMGDLLALCSAIIWAIYWILNLRDPRKAEVKMMWNFIFGFLYISILGVIEGIKFDPYGVLGAIYVGTFEMGLTFLLWLKALESEEAGKVASLIYLTPVLSLLFISIVVGEKILGSTIVGLALILLGIALSRR”: the protein production entry was “failed”.

Take “MLKAFRKNQHPVAIPSTLPDGSAWPRISIVTPSYNNAKYIEETIISVLEQGYPDVEHIIVDGASKDGTAAILDRYRGHVARIIQEPDTGQSNAINKGMRLATGEIVTWLNSDDLLAPGALAAVAMAFHMSGADMVAGGCQLYRNGGYLGTHLTSCADGTLPAEEISDLYGGWQTGKFFYQPEVMFTRDLWQRAGGQVREDLHYCMDVEMWLRFASCGARLHVIGAPVAMFRLHEEQKTNNPDASPDEYIPVANAWRTTHGLPPITRTTLPPPPPPLKVAFVNDIGFQYGAGIAHQRLFTAVSSAGHTVRGWATGFQSPRDVFEATAARIISEIEAFEPDVVVCGNLHCTIADSDMLVRLTDRWPTCFCLHDLWLLTGHCPHPGFLDCVRHLAGCDHTCPSPDTYPTIAAGDIRKAWDAKREVMARDTFLALANSNWTRAQHDGCTTPGHEARLLRLGCDESIFHPGDRLEARRQLGLDMDAFVVLMPMVDFSSPFKGSVEGLEALSGAGLENLQVICFGVVEQEMIARFPILTALGYLHDPEAVATAYRAADVVVSFSHAETFGQTLMEAACCGIPSLAYRCTGLPDAVVDGVSGFLVDETPDALITRLHQLHADANLRASLGTWAALYARNSRCLQAEYHSFHTNLEEAGLLAPGRLGKNIFFAHTEAHEAEPSIPVSDPRPGSAFKNWLRRELPTPVWMALRRVYRGTKSRLGMHP”: the protein production entry was “failed”.

Turning to “MLFDEKEILAITRWAKLYANQSPDRILLGSNDIPPEYRAAVATQIELWPRLRNKLPQWPGISSLYIPSRLSLEQSSGAVTSSYKSRFIREGTKVVDLTGGLGIDFIALMSKASQGIYIERNDETAVAARHNIPLLLNEGKDLNILTGDFKEYLPLIKTFHSDYIYVDPARRSGADKRVYAIADCEPDLIPLAAELLPFCSSILAKLSPMIDLWDTLQSLPHVQELHVVAAHGEVKELLVRMSLNEATIPPEKVPIHAVNLLSEDTVIPFIFTMEEERSISVPYADSIDKYVYEPHTALFKAGAFKTVAYRLGLRKLHPNSHLYTSEAYESAFPGRTFVLEEIIPFSTSVLKQLGKVVPRASISCRNFPLSPIELRQRSKMADGGEKTLMGTTMADGKKVLLLLRKAE”, the protein production result is “failed”.

In the case of “MSFIEKMIGSLNDKREWKAMEARAKALPKEYHHAYKAIQKYMWTSGGPTDWQDTKRIFGGILDLFEEGAAEGKKVTDLTGEDVAAFCDELMKDTKTWMDKYRTKLNDSIGRD”, the protein production result is on record as “not failed”.

Regarding “HAATAAEPPTAPTPPTQPAEGPGGADYRHASVHQWHFGEGAREYWVFTPEQPVPGNAPLVIFLHGWSVMQPDLYRAWIDHIVRRGMVVVYPRYQPDLKTPNAAFLDNAAGALGDALRRLQAGELGVRPRLNQVAYLGHSAGGLLAANLAAASERLK”, the protein production entry is listed as “failed”.

As to “WLDDGKNGGQLGSVEASAVYRNTQVFGEAAYATEPGALSWICGVQSDLAKGITGVVSMRDYAFEYYSPFAGAFAERGDNASNESGLYLGLKAKVRDNLTLAGLYDRFRFPVLDKRYYVYPSSGYEARFYATWKQNRWMTWDAMYQHKEKEEAKKQFDSNIGTSRYIPVPKITNRVQLGLVVECSPGITLKSRAAFKSLRSHFVTGAESEEGWLLYQQINLKRGPFTLKTRLARFDTDSYDVALYAYEDDLPLVYMLNAYYGRGKAWFIVLDFEPVKNFNLTAKYETTWYDDRDVYSSGNDLRNTSSPGSYHVGCMLKF”, the protein production result is “failed”.

As for “MKSHAEVVKTRHHEYSLVFPVIALVVLYIWGNSQDFIAILGINAVALAGILFSAFSVVRHADVLAHRLGEPYGSLILSLSVVILEVSLISALMATGDAGPDLMRDTLYSIIVIVTGGLVGFALLLGGRKFATQYVNLSGIKQYLMAIFPLAVIVLVFPSALPDGNFSVTQSLIVAAISAAMYGVFLLIQTRTHQSLFVYEHEDEGDGDDPHHGKPSAHSSLWHTGWLLVHLIAVIAVTKTNSMPLETLLTEMNAPTQFTGFLVALLILSPEGLGAIRAVLKNQVQRAMNLFFGSVLATISLTVPTVTIIAMITGRTLNFGLDMPHIVVMLSVLVLCHITFSTGRTNVLSGSAHLALFAAYLITITL”, the protein production result is given as “failed”.

The record behind these values is a protein production outcome set (Wang et al. 2014).
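Also: failed if final PepcDB status was selected cloned or expressed and not failed if soluble or beyond.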
